Data on one molecule can be found in patent US20190016771A1 (Hoffmann-La Roche, published 2019).

For experiment [1], the target named is T1, human OX40 (CD134) on the cell surface (human, UniProt P43489 29-277).
T1 construct: whole, on cells; also called hOx40
T1 sequence (looked up): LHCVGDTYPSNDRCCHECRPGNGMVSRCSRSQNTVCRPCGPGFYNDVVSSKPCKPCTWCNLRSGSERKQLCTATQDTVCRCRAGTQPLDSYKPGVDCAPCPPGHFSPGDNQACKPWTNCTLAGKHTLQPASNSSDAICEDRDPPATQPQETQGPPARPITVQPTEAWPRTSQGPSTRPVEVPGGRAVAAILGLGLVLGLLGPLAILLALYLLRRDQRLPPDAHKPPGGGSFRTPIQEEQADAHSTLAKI
Briefly: flow cytometry on activated human CD8+ T cells (OX40 positive); activated OX40 positive CD8+ T cells. Here is the method: (§1) PBMCs were used directly after isolation (binding on resting human PBMCs) or they were stimulated to receive a strong human Ox40 expression on the cell surface of T cells (binding on activated human PBMCs). Therefore naïve PBMCs were cultured for three days in T cell medium supplied with 200 U/mL Proleukin (Novartis) and […] PHA-L (Sigma-Aldrich, L2769-10) in 6-well tissue culture plate at 37° C. and 5% CO₂.
(§2) Cells were stained for 120 minutes at 4° C. in the dark in 50 μL/well 4° C. cold FACS buffer containing titrated anti-Ox40 antibody constructs. After three times washing with excess FACS buffer, cells were stained for 1 h at 4° C. in the dark in 25 μL/well 4° C. cold FACS buffer containing a mixture of fluorescently labeled anti-human CD4 (clone OKT4, mouse IgG1 k, BioLegend, Cat.-No. 317428), anti-human CD8 (clone RPa-T8, mouse IgG1k, BD Pharmingen, Cat.-No. 555368) and Fluorescein isothiocyanate (FITC)-conjugated AffiniPure anti-human IgG F(ab′)2-fragment-specific goat IgG F(ab′)₂ fragment (Jackson ImmunoResearch, Cat.-No. 109-096-097). Plates were finally resuspended in 90 μL/well FACS-buffer containing 0.2 μg/mL DAPI (Santa Cruz Biotec, Cat. No. Sc-3598) and acquired the same day using 5-laser LSR-Fortessa (BD Bioscience with DIVA software).
In general terms: In flow cytometry, cells or beads pass a laser one at a time.

For experiment [2], the target named is T2, human fibroblast activation protein (FAP) on the cell surface (human, UniProt Q12884 1-760).
T2 construct: also called huFAP; NIH/3T3-huFAP clone 39 cells
T2 sequence: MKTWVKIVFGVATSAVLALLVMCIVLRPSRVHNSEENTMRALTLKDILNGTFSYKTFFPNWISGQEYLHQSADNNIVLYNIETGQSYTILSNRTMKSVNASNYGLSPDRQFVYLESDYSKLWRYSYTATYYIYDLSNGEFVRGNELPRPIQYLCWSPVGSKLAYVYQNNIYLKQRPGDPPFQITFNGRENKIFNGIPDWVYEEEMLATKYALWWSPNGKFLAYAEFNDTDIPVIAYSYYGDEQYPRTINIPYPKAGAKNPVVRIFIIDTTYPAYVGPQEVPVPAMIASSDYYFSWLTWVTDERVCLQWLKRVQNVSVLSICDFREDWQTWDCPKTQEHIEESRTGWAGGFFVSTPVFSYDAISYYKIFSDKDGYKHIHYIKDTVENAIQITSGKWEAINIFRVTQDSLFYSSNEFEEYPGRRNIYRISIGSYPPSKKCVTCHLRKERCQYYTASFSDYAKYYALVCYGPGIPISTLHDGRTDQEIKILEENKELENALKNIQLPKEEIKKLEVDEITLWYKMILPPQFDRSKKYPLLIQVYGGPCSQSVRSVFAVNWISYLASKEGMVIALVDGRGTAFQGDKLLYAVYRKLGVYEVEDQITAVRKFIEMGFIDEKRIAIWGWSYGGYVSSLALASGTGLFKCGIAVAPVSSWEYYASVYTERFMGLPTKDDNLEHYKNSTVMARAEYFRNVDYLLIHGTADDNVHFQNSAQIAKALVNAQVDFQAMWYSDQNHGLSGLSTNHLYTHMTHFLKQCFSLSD
Briefly: flow cytometry on WM-266-4 cells, FITC anti-human IgG F(ab')2 detection. Here is the method:
Cells were stained for 120 minutes at 4° C. in the dark in 50 μL/well 4° C. cold FACS buffer (DPBS (Gibco by Life Technologies, Cat. No. 14190 326) w/ BSA (0.1% v/w, Sigma-Aldrich, Cat. No. A9418) containing titrated huCMP trimeric OX40 ligand-containing antigen binding molecules. After three times washing with excess FACS buffer, cells were stained for 60 minutes at 4° C. in the dark in 25 μL/well 4° C. cold FACS buffer containing Fluorescein isothiocyanate (FITC)-conjugated AffiniPure anti-human IgG F(ab′)₂-fragment-specific goat IgG F(ab′)₂ fragment (Jackson ImmunoResearch, Cat.-No. 109-096-097).
Plates were finally resuspended in 90 μL/well FACS-buffer containing 0.2 μg/mL DAPI (Santa Cruz Biotec, Cat. No. Sc-3598) and acquired the same day using 5-laser LSR-Fortessa (BD Bioscience with DIVA software).

For experiment [3], the target named is T1, human OX40 (CD134) on the cell surface. Briefly: flow cytometry on activated human CD4+ T cells (OX40 positive); activated OX40 positive CD4+ T cells. Here is the method: as §1, §2

As usually defined, the EC50 is the concentration at which the effect is half-maximal. A low value points to a more potent agent.

B1: FAP(28H1)-targeted human CMP trimeric OX40L-containing antigen binding molecule (other)
chain: EVQLLESGGGLVQPGGSLRLSCAASGFTFSSHAMSWVRQAPGKGLEWVSAIWASGEQYYADSVKGRFTISRDNSKNTLYLQMNSLRAEDTAVYYCAKGWLGNFDYWGQGTLVTVSSASTKGPSVFPLAPSSKSTSGGTAALGCLVKDYFPEPVTVSWNSGALTSGVHTFPAVLQSSGLYSLSSVVTVPSSSLGTQTYICNVNHKPSNTKVDKKVEPKSCDGGGGSGGGGSEEDPCACESLVKFQAKVEGLLQALTRKLEAVSKRLAILENTVVSGGGGSGGGGSGGGGSGGGGSQVSHRYPRIQSIKVQFTEYKKEKGFILTSQKEDEIMKVQDNSVIINCDGFYLISLKGYFSQEVDISLHYQKDEEPLFQLKKVRSVNSLMVASLTYKDKVYLNVTTDNTSLDDFHVNGGELILIHQNPGEFCVL
light: EIVLTQSPGTLSLSPGERATLSCRASQSVSRSYLAWYQQKPGQAPRLLIIGASTRATGIPDRFSGSGSGTDFTLTISRLEPEDFAVYYCQQGQVIPPTFGQGTKVEIKRTVAAPSVFIFPPSDEQLKSGTASVVCLLNNFYPREAKVQWKVDNALQSGNSQESVTEQDSKDSTYSLSSTLTLSKADYEKHKVYACEVTHQGLSSPVTKSFNRGEC
notes: also called trimeric FAP-huCMP-OX40L
On to B1, for which the EC50 in experiment [1] was 3 nM; in experiment [2], 17.3 nM; in experiment [3], 10.2 nM.
